Test results from PMC10020445, “Mechanism underlying delayed rectifying in human voltage-mediated activation Eag2 channel” (Nature Communications, 2023).

Target: the molecule itself
Test: cryo-EM structure; purified hEag2 in 20 mM Tris-HCl pH 8.0, 150 mM KCl, 1 mM MgCl2, 0.03% digitonin, about 5 mg/ml; six maps (closed 1, closed 2, pre-open 1, pre-open 2, open, pore dilation but non-conducting) refined with C4 symmetry imposed

B1: human Eag2 (hEag2) voltage-gated potassium channel (natural protein, UniProt Q8NCM2 1-988, looked up)
chain: MPGGKRGLVAPQNTFLENIVRRSSESSFLLGNAQIVDWPVVYSNDGFCKLSGYHRADVMQKSSTCSFMYGELTDKKTIEKVRQTFDNYESNCFEVLLYKKNRTPVWFYMQIAPIRNEHEKVVLFLCTFKDITLFKQPIEDDSTKGWTKFARLTRALTNSRSVLQQLTPMNKTEVVHKHSRLAEVLQLGSDILPQYKQEAPKTPPHIILHYCAFKTTWDWVILILTFYTAIMVPYNVSFKTKQNNIAWLVLDSVVDVIFLVDIVLNFHTTFVGPGGEVISDPKLIRMNYLKTWFVIDLLSCLPYDIINAFENVDEGISSLFSSLKVVRLLRLGRVARKLDHYLEYGAAVLVLLVCVFGLVAHWLACIWYSIGDYEVIDEVTNTIQIDSWLYQLALSIGTPYRYNTSAGIWEGGPSKDSLYVSSLYFTMTSLTTIGFGNIAPTTDVEKMFSVAMMMVGSLLYATIFGNVTTIFQQMYANTNRYHEMLNNVRDFLKLYQVPKGLSERVMDYIVSTWSMSKGIDTEKVLSICPKDMRADICVHLNRKVFNEHPAFRLASDGCLRALAVEFQTIHCAPGDLIYHAGESVDALCFVVSGSLEVIQDDEVVAILGKGDVFGDIFWKETTLAHACANVRALTYCDLHIIKREALLKVLDFYTAFANSFSRNLTLTCNLRKRIIFRKISDVKKEEEERLRQKNEVTLSIPVDHPVRKLFQKFKQQKELRNQGSTQGDPERNQLQVESRSLQNGASITGTSVVTVSQITPIQTSLAYVKTSESLKQNNRDAMELKPNGGADQKCLKVNSPIRMKNGNGKGWLRLKNNMGAHEEKKEDWNNVTKAESMGLLSEDPKSSDSENSVTKNPLRKTDSCDSGITKSDLRLDKAGEARSPLEHSPIQADAKHPFYPIPEQALQTTLQEVKHELKEDIQLLSCRMTALEKQVAEILKILSEKSVPQASSPKSQMPLQVPPQIPCQDIFSVSRPESPESDKDEIHF
notes: human Eag2 potassium channel (hEag2), UniProtKB Q8NCM2; gene placed before a PreScission protease site, followed by C-terminal EGFP and FLAG; the C-terminal GFP tag was removed with HRV 3C protease; the methods describe only one construct; FLAG stands after EGFP behind the protease site, so it leaves with the GFP tag; Residues with poor side-chain density were modelled as alanines in the …
stoichiometry N: 4
